Our source for the stoichiometry N values is PMC4742562, “Structure and Interactions of a Dimeric Variant of sHIP, a Novel Virulence Determinant of Streptococcus pyogenes” (Frontiers in Microbiology, 2016).

For this experiment, the target named is protein sHIP (streptococcal Histidine-rich glycoprotein Interacting Protein), sHIPwt (S. pyogenes). The experiment can be described thus: AUC; sedimentation velocity, 20°C, 50000 rpm, 20 mM MES pH 5.5; c(S) distribution compared with theoretical sedimentation coefficients (HYDROPRO).

Consider “protein sHIP (streptococcal Histidine-rich glycoprotein Interacting Protein), sHIPwt (natural protein)”, for which the stoichiometry N came out at 4.
